Patent US20140087995A1 (published 2014)
Numbered stars: 1 amine (or outer) side, 2 acyl side, 3 side chain; on linkers, the order of the positions; unused ones are H or OH. Bridge positions count the residues as written; N and C are the ends. * marks the point of attachment. C20 diacid = O=C(O)CCCCCCCCCCCCCCCCCCC(=O)*; γGlu = O=C(O)[C@H](CCC(=O)[*:2])N[*:1]

T1: human amylin 3(a) receptor (human calcitonin receptor plus RAMP-3) (human, UniProt P30988 25-474; O60896 24-148, limits assumed)
T1 construct: whole, on cells; Whole cells in the luciferase assay (Assay II a); also called hAmylin-R; human amylin receptor
T1 sequence (looked up) 1: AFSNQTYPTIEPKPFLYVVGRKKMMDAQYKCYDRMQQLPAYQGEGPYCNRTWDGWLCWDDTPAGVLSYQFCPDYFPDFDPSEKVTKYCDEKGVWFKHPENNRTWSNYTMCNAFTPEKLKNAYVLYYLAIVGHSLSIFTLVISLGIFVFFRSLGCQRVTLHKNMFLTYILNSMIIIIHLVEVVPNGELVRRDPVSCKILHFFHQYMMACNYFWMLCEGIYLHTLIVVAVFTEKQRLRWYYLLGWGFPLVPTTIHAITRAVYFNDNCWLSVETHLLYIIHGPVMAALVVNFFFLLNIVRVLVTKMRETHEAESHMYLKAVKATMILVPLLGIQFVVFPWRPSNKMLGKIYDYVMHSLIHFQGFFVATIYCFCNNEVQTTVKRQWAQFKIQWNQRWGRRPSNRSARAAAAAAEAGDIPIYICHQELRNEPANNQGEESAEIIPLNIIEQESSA
T1 sequence (looked up) 2: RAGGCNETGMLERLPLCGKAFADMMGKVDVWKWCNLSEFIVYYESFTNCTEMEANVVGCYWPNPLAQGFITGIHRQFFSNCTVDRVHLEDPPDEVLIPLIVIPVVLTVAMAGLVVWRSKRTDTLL

T2: human calcitonin receptor (human, UniProt P30988 25-474)
T2 sequence (looked up): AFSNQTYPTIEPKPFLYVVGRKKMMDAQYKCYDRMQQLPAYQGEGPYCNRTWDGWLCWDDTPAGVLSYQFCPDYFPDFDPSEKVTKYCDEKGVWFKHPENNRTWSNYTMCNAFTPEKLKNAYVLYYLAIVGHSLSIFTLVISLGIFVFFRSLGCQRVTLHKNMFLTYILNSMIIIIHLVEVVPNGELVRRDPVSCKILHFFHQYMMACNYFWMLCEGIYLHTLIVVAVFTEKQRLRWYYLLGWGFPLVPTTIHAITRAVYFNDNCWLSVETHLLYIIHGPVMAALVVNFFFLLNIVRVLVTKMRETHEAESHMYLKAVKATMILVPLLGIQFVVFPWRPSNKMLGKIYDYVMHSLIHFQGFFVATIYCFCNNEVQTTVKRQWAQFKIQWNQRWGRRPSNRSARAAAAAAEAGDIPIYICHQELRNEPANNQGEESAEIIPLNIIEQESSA


What was measured:
[1] = target: T1, human amylin 3(a) receptor (human …); assay: SPA competition binding, displacement of 125I-rat amylin from membranes of Amylin 3(a)/CRE-luc BHK cells (Assay V)
Experimental: The binding assay was performed using scintillation proximity assay (SPA) beads (RPNQ0001) from PerkinElmer and cell membranes from the Amylin 3(a)/CRE-luc cells (as described in Assay (II)) were used. Membranes were prepared in the following way; the cells were rinsed with PBS and incubated with Versene for approximately 5 min before harvesting. The cells were flushed with PBS and the cell-suspension was centrifuged for 5 min at 1000 rpm. Cells were homogenized (ultrathurrax) in a buffer containing 20 mM Na-HEPES and 10 mM EDTA (pH 7.4) and centrifuged at 20.000 rpm for 15 min. The resulting pellet was resuspended, homogenized and centrifuged (20.000 rpm, 15 min) in a buffer containing 20 mM Na-HEPES and 0.1 mM EDTA (pH 7.4, buffer 2). The resulting pellet was resuspended in buffer 2 and protein concentration was measured (BCA protein Assay, Pierce). The homogenate was kept cold during the whole procedure. The membranes were kept at −80° C. until use. The assay was performed in a 384 well Optiplate (PerkinElmer) in a total volume of 40 ul. Membranes were mixed with SPA beads. Final concentration of membranes 35 ng/μL final and SPA beads was 0.05 mg/well. Test-compounds were dissolved in DMSO and further diluted in assay buffer (50 mM Hepes, pH 7.4, 1 mM CaCl2, 5 mM MgCl₂, 0.1% OA and 0.02% Tween20). […] The final mixture was incubated with shaking at 400 rpm for 120 min at 25° C. prior to centrifugation (1500 rpm, 10 min). Samples were analyzed on TopCounter™ (Packard). The IC₅₀ was calculated using (one site binding competition analysis) GraphPad Prism5 as a measure of receptor affinity.

[2] = target: T1, human amylin 3(a) receptor (human …); assay: cell-based or functional assay
[3] = target: T2, human calcitonin receptor; assay: cell-based or functional assay

IC50 [1] | Ratio hCT/hAmylin funct. [2] | hAmylin-R funct. EC50 [2] | hCTR funct. EC50 [3] | Binder
0.894 nM | 6.1 | 0.363 nM | 2.21 nM | {C20 diacid-γGlu}-KCNTATCATQRLAEFLRHSSPNFGAIPSSTNVGSRTY-NH2 (disulfide 2-7; SMILES CC[C@H](C)[C@H](NC(=O)[C@H](C)NC(=O)CNC(=O)[C@H](Cc1ccccc1)NC(=O)[C@H](CC(N)=O)NC(=O)[C@@H]1CCCN1C(=O)[C@H](CO)NC(=O)[C@H](CO)NC(=O)[C@H](Cc1c[nH]cn1)NC(=O)[C@H](CCCNC(=N)N)NC(=O)[C@H](CC(C)C)NC(=O)[C@H](Cc1ccccc1)NC(=O)[C@H](CCC(=O)O)NC(=O)[C@H](C)NC(=O)[C@H](CC(C)C)NC(=O)[C@H](CCCNC(=N)N)NC(=O)[C@H](CCC(N)=O)NC(=O)[C@@H](NC(=O)[C@H](C)NC(=O)[C@@H]1CSSC[C@H](NC(=O)[C@H](CCCCN)NC(=O)CC[C@H](NC(=O)CCCCCCCCCCCCCCCCCCC(=O)O)C(=O)O)C(=O)N[C@@H](CC(N)=O)C(=O)N[C@@H]([C@@H](C)O)C(=O)N[C@@H](C)C(=O)N[C@@H]([C@@H](C)O)C(=O)N1)[C@@H](C)O)C(=O)N1CCC[C@H]1C(=O)N[C@@H](CO)C(=O)N[C@@H](CO)C(=O)N[C@H](C(=O)N[C@@H](CC(N)=O)C(=O)N[C@H](C(=O)NCC(=O)N[C@@H](CO)C(=O)N[C@@H](CCCNC(=N)N)C(=O)N[C@H](C(=O)N[C@@H](Cc1ccc(O)cc1)C(N)=O)[C@@H](C)O)C(C)C)[C@@H](C)O, also called compound 16)
0.878 nM | 8.8 | 0.268 nM | 2.35 nM | {C20 diacid-γGlu}-KCNTATCATQRLAEFLRHSSPNFGAIPSSTNVGHNTY-NH2 (disulfide 2-7; SMILES CC[C@H](C)[C@H](NC(=O)[C@H](C)NC(=O)CNC(=O)[C@H](Cc1ccccc1)NC(=O)[C@H](CC(N)=O)NC(=O)[C@@H]1CCCN1C(=O)[C@H](CO)NC(=O)[C@H](CO)NC(=O)[C@H](Cc1c[nH]cn1)NC(=O)[C@H](CCCNC(=N)N)NC(=O)[C@H](CC(C)C)NC(=O)[C@H](Cc1ccccc1)NC(=O)[C@H](CCC(=O)O)NC(=O)[C@H](C)NC(=O)[C@H](CC(C)C)NC(=O)[C@H](CCCNC(=N)N)NC(=O)[C@H](CCC(N)=O)NC(=O)[C@@H](NC(=O)[C@H](C)NC(=O)[C@@H]1CSSC[C@H](NC(=O)[C@H](CCCCN)NC(=O)CC[C@H](NC(=O)CCCCCCCCCCCCCCCCCCC(=O)O)C(=O)O)C(=O)N[C@@H](CC(N)=O)C(=O)N[C@@H]([C@@H](C)O)C(=O)N[C@@H](C)C(=O)N[C@@H]([C@@H](C)O)C(=O)N1)[C@@H](C)O)C(=O)N1CCC[C@H]1C(=O)N[C@@H](CO)C(=O)N[C@@H](CO)C(=O)N[C@H](C(=O)N[C@@H](CC(N)=O)C(=O)N[C@H](C(=O)NCC(=O)N[C@@H](Cc1c[nH]cn1)C(=O)N[C@@H](CC(N)=O)C(=O)N[C@H](C(=O)N[C@@H](Cc1ccc(O)cc1)C(N)=O)[C@@H](C)O)C(C)C)[C@@H](C)O, also called compound 17)
0.105 nM | 0.9 | 0.12 nM | 0.112 nM | {C20 diacid-γGlu}-KCNTATCATQRLAEFLRHSSPNFGAIPSSTNVGSDTP-NH2 (disulfide 2-7; SMILES CC[C@H](C)[C@H](NC(=O)[C@H](C)NC(=O)CNC(=O)[C@H](Cc1ccccc1)NC(=O)[C@H](CC(N)=O)NC(=O)[C@@H]1CCCN1C(=O)[C@H](CO)NC(=O)[C@H](CO)NC(=O)[C@H](Cc1c[nH]cn1)NC(=O)[C@H](CCCNC(=N)N)NC(=O)[C@H](CC(C)C)NC(=O)[C@H](Cc1ccccc1)NC(=O)[C@H](CCC(=O)O)NC(=O)[C@H](C)NC(=O)[C@H](CC(C)C)NC(=O)[C@H](CCCNC(=N)N)NC(=O)[C@H](CCC(N)=O)NC(=O)[C@@H](NC(=O)[C@H](C)NC(=O)[C@@H]1CSSC[C@H](NC(=O)[C@H](CCCCN)NC(=O)CC[C@H](NC(=O)CCCCCCCCCCCCCCCCCCC(=O)O)C(=O)O)C(=O)N[C@@H](CC(N)=O)C(=O)N[C@@H]([C@@H](C)O)C(=O)N[C@@H](C)C(=O)N[C@@H]([C@@H](C)O)C(=O)N1)[C@@H](C)O)C(=O)N1CCC[C@H]1C(=O)N[C@@H](CO)C(=O)N[C@@H](CO)C(=O)N[C@H](C(=O)N[C@@H](CC(N)=O)C(=O)N[C@H](C(=O)NCC(=O)N[C@@H](CO)C(=O)N[C@@H](CC(=O)O)C(=O)N[C@H](C(=O)N1CCC[C@H]1C(N)=O)[C@@H](C)O)C(C)C)[C@@H](C)O, also called compound 11)
0.97 nM | 4 | 0.092 nM | 0.372 nM | {C20 diacid-γGlu}-KCNTATCATQRLAEFLRHSSPNFGAIPSPTNVGSNTY-NH2 (disulfide 2-7; SMILES CC[C@H](C)[C@H](NC(=O)[C@H](C)NC(=O)CNC(=O)[C@H](Cc1ccccc1)NC(=O)[C@H](CC(N)=O)NC(=O)[C@@H]1CCCN1C(=O)[C@H](CO)NC(=O)[C@H](CO)NC(=O)[C@H](Cc1c[nH]cn1)NC(=O)[C@H](CCCNC(=N)N)NC(=O)[C@H](CC(C)C)NC(=O)[C@H](Cc1ccccc1)NC(=O)[C@H](CCC(=O)O)NC(=O)[C@H](C)NC(=O)[C@H](CC(C)C)NC(=O)[C@H](CCCNC(=N)N)NC(=O)[C@H](CCC(N)=O)NC(=O)[C@@H](NC(=O)[C@H](C)NC(=O)[C@@H]1CSSC[C@H](NC(=O)[C@H](CCCCN)NC(=O)CC[C@H](NC(=O)CCCCCCCCCCCCCCCCCCC(=O)O)C(=O)O)C(=O)N[C@@H](CC(N)=O)C(=O)N[C@@H]([C@@H](C)O)C(=O)N[C@@H](C)C(=O)N[C@@H]([C@@H](C)O)C(=O)N1)[C@@H](C)O)C(=O)N1CCC[C@H]1C(=O)N[C@@H](CO)C(=O)N1CCC[C@H]1C(=O)N[C@H](C(=O)N[C@@H](CC(N)=O)C(=O)N[C@H](C(=O)NCC(=O)N[C@@H](CO)C(=O)N[C@@H](CC(N)=O)C(=O)N[C@H](C(=O)N[C@@H](Cc1ccc(O)cc1)C(N)=O)[C@@H](C)O)C(C)C)[C@@H](C)O, also called compound 37)
0.554 nM | 4.8 | 0.154 nM | 0.742 nM | {C20 diacid-γGlu}-KCNTATCATQRLAEFLRHSSPNFGAIPSSTNVGSHTY-NH2 (disulfide 2-7; SMILES CC[C@H](C)[C@H](NC(=O)[C@H](C)NC(=O)CNC(=O)[C@H](Cc1ccccc1)NC(=O)[C@H](CC(N)=O)NC(=O)[C@@H]1CCCN1C(=O)[C@H](CO)NC(=O)[C@H](CO)NC(=O)[C@H](Cc1c[nH]cn1)NC(=O)[C@H](CCCNC(=N)N)NC(=O)[C@H](CC(C)C)NC(=O)[C@H](Cc1ccccc1)NC(=O)[C@H](CCC(=O)O)NC(=O)[C@H](C)NC(=O)[C@H](CC(C)C)NC(=O)[C@H](CCCNC(=N)N)NC(=O)[C@H](CCC(N)=O)NC(=O)[C@@H](NC(=O)[C@H](C)NC(=O)[C@@H]1CSSC[C@H](NC(=O)[C@H](CCCCN)NC(=O)CC[C@H](NC(=O)CCCCCCCCCCCCCCCCCCC(=O)O)C(=O)O)C(=O)N[C@@H](CC(N)=O)C(=O)N[C@@H]([C@@H](C)O)C(=O)N[C@@H](C)C(=O)N[C@@H]([C@@H](C)O)C(=O)N1)[C@@H](C)O)C(=O)N1CCC[C@H]1C(=O)N[C@@H](CO)C(=O)N[C@@H](CO)C(=O)N[C@H](C(=O)N[C@@H](CC(N)=O)C(=O)N[C@H](C(=O)NCC(=O)N[C@@H](CO)C(=O)N[C@@H](Cc1c[nH]cn1)C(=O)N[C@H](C(=O)N[C@@H](Cc1ccc(O)cc1)C(N)=O)[C@@H](C)O)C(C)C)[C@@H](C)O, also called compound 18)
